Source: the MegaScale stability set (Tsuboyama et al. 2023)

B1: EHEE_rd3_0053 (parent)
chain: TYTFKVDNKDQAKKAAKWAKKLGLSFQIEKHGDTFKITVQ
B2: HHH_rd1_0493 (parent)
chain: RDEDEKEKIKEALKRGNEDKAKEIAKRANVSPEEYERLRKEAE

Variants of: B1
Experiment: folding stability dG (cDNA display proteolysis); higher = more stable
Settings: PBS, room temperature

Variant	folding stability dG [kcal/mol]
TYTFKVDDKDQAKKAAKWAKKLGLSFQIEKHGDTFKITVQ	2.02
TYTFKVDNKDQAKKAAKWAKKLGLSFQIEKKGDTFKITVQ	2.14
TYTFKVDNKDQAKKAAKWAKKLGLSFQIEKDGDTFKITVQ	2.97
TYTFKVDNKDQAKKAAKWAKKLGLSFQIEKCGDTFKITVQ	3.09
TYTFKVDNKDQAKKAAKWAKKLGLSFQIEKPGDTFKITVQ	0.239
TYTFKVDNKDQAKKAAKWAKKLGLSFQIEKAGDTFKITVQ	2.41
TYTFKVDNKDQAKKAAKWAKKLGLSFQIEKEGDTFKITVQ	2.93
TYTFKVDNKDQAKKAAKWAKKLGLSFQIEKFGDTFKITVQ	2.55
TYTFKVDNKDQAKKAAKWAKKLGLSFQIEKIGDTFKITVQ	2.89
TYTFKVDNKDQAKKAAKWAKKLGLSFQIEKHFDTFKITVQ	1.65
TYTFKVDNKDQAKKAAKWAKKLGLSFQIEKHKDTFKITVQ	1.77
TYTFKVDNKDQAKKAAKWAKKLGLSFQIEKHPDTFKITVQ	0.72
TYTFKVDNKDQAKKAAKWAKKLGLSFQIEKHGDTAKITVQ	0.298
TYTFKVDNKDQAKKAAKWAKKLGLSFQIEKHGDTWKITVQ	2.75
TYTFKVDNKDQAKKAAKWAKKLGLSFQIEKHGDTMKITVQ	1.31
TYTFKVDNKDQAKKAAKHAKKLGLSFQIEKHGDTFKITVQ	1.22
TYTFKVDNKDQAKKAAKRAKKLGLSFQIEKHGDTFKITVQ	1.5
TYTFKVDNKDQAKKAAKNAKKLGLSFQIEKHGDTFKITVQ	0.859
TYTFKVDNKDQAKKAAKWAKKLGLSFQIEKHGHTFKITVQ	2.1

Variant	folding stability dG [kcal/mol]
TYTFKVDNKDQAKKAAKWAKKLGLSFQIEKHGITFKITVQ	1.91
TYTFKVDNKDQAKKAAKWAKKLGLSFQIEKHGMTFKITVQ	2.1
TYTFKVDNKDQAKKAAKWAKKLGLSFQIEKHGNTFKITVQ	2.45
TYTFKVDNKDQAKKAAKWAKKLGLSFQIEKHGWTFKITVQ	1.76
TYTFKVDNKDQAKKAAKWAKKLGLSFQIEKHGDTFKITVK	2.45
TYTFKVDNKDQAKKAAKWAKKLGLSFQIEKHGDTFKITVM	2.6
TYTFKVDNKDQAKKAAKWAKKLGLSFQIEKHGDTFKITVV	2.41
TYTFKVDNKDQAKKAAKWAKKLGLSFQIEKHGDTFKITVR	2.59
TYTFKVDNKDQAKKAAKWAKKLGLSFQIEKHGDTFKITVE	2.19
TYTFKVDNKDQAKKAAKWAKKLGLWFQIEKHGDTFKITVQ	2.38
TYTFKVDNKDQAKKAAKWAKKLGLHFQIEKHGDTFKITVQ	2.29
TYTFKVDNKDQAKKAAKWAKKLGLAFQIEKHGDTFKITVQ	2.36
TYTFKVDNKDQAKKAAKWAKKLGLVFQIEKHGDTFKITVQ	2.42
TYTFKVDNKDQAKKAAWWAKKLGLSFQIEKHGDTFKITVQ	2.43
TYTFKVDNKDQAKKAAGWAKKLGLSFQIEKHGDTFKITVQ	1.9
TYTFKVDNKDQAKKAATWAKKLGLSFQIEKHGDTFKITVQ	2.17
TYTFKVDNKDQAKKAAIWAKKLGLSFQIEKHGDTFKITVQ	2.53
TYFFKVDNKDQAKKAAKWAKKLGLSFQIEKHGDTFKITVQ	2.2
TYTFKVDNKDQACKAAKWAKKLGLSFQIEKHGDTFKITVQ	3.24

Variant	folding stability dG [kcal/mol]
TYTFKVDNKDQAFKAAKWAKKLGLSFQIEKHGDTFKITVQ	2.23
TYTFKVDNKDQAQKAAKWAKKLGLSFQIEKHGDTFKITVQ	2.3
TYTFKVDNKDQAWKAAKWAKKLGLSFQIEKHGDTFKITVQ	2.35
TYTFKVDNKDQAPKAAKWAKKLGLSFQIEKHGDTFKITVQ	-0.412
TYTFKVDNKDQAKKAAKWAKKLGLSSQIEKHGDTFKITVQ	1.03
TYTFKVDNKDQAKKAAKWAKKLGLSTQIEKHGDTFKITVQ	1.34
TYTFKVDNKDQAKKAAKWAKKLGLSWQIEKHGDTFKITVQ	1.88
TYTFKVDNKDQAKKAIKWAKKLGLSFQIEKHGDTFKITVQ	2.73
TYTFKVDNKDQAKKANKWAKKLGLSFQIEKHGDTFKITVQ	1.06
TYTFKVDNKDQAKKAAKWAKKLGLSFQIEKHGDTFKILVQ	1.78
TYTFKVDNKDQAKKAAKWAKKLGLSFQIEKHGDTFKIHVQ	1.8
TYTFKVDNKDQAKKAAKWAKKLGLSFQIEKHGDTFKISVQ	1.81
TYTFKVDNKDQAKKAAKWAKKLGLSFQIEKHGDTFKIAVQ	1.3
TYTFKVDNKDQAKKAAKWAKKLGLSFQIEKHGDTFKIFVQ	1.71
TYTFKVDNKDQAKKAAKWAKKLGLSFQIMKHGDTFKITVQ	2.05
TYTFVVDNKDQAKKAAKWAKKLGLSFQIEKHGDTFKITVQ	3.31
TYTFHVDNKDQAKKAAKWAKKLGLSFQIEKHGDTFKITVQ	3.07
TYTFNVDNKDQAKKAAKWAKKLGLSFQIEKHGDTFKITVQ	2.79
TYTFRVDNKDQAKKAAKWAKKLGLSFQIEKHGDTFKITVQ	2.22

Variants of: B2
Experiment: as above
Settings: PBS, room temperature

Variant	folding stability dG [kcal/mol]
RDEDEKEKIKEALKRGNEDKAKEIAKRANVSPEEYERLRKEAY	3.29
RDEDEKEKIKEALKRGNEDKAKEIAKRANVSPEEYERLRKEAR	2.72
RDEDEKEKIKEALKRGNEDKAKEIAKRANVSPEEYERLRKEAW	3.31
RDEDEKEKIKEALKRGNEDKAKEIAKRANVSPEEYERLRKEAS	2.62
RDEDEKEKIKEALKRGNEDKAKEIAKRANVSPEEYERLRKEAV	2.79
RDEDEKEKIKEALKRGNEDKAKEIAKRANVSPEEYERLRKEAT	2.65
